The star is where a group is joined. Farnesyl = CC(C)=CCC/C(C)=C/CC/C(C)=C/C*; FAM = fluorescein label
Molecular target: T1, K-Ras4B C-terminal peptide (Homo sapiens, also: FAM-labelled)
T1 chain: {FAM}-KKKKKKSKTKC(Farnesyl)-OMe
Experiment: fluorescence polarization

Kd: 150 nM
B1: PDE6D (protein)
chain: MSAKDERAREILRGFKLNWMNLRDAETGKILWQGTEDLSVPGVEHEARVPKKILKCKAVSRELNFSSTEQMEKFRLEQKVYFKGQCLEEWFFEFGFVIPNSTNTWQSLIEAAPESQMMPASVLTGNVIIETKFFDDDLLVSTSRVRLFYV

Source: publication PMC12703448 (2025)
